From PMC8187647, “Low chorionic villous succinate accumulation associates with recurrent spontaneous abortion risk” (Nature Communications, 2021)

Columns and labels:
SDHC = target: T1, SDHC (Homo sapiens, UniProt Q99643); assay: DARTS (Pronase proteolysis, western blot); type: binding; details: 1 mM aspirin, 1 h; Pronase 1:2000, room temperature, 30 min
T1 construct: recombinant Flag-tagged SDHC, transient expression in HEK293T, anti-Flag M2 purified
T1 sequence (Q99643 30-169): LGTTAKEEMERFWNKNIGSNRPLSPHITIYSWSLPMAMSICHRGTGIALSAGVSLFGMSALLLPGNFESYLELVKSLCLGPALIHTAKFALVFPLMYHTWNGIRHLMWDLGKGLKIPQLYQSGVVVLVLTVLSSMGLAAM

SDHA = target: T2, SDHA (Homo sapiens, UniProt P31040); assay: DARTS (Pronase proteolysis, western blot); type: binding; details: 1 mM aspirin, 1 h; Pronase 1:2000, room temperature, 30 min
T2 construct: recombinant Flag-tagged SDHA, transient expression in HEK293T, anti-Flag M2 purified

MBD1 = target: T3, MBD1 (UniProt Q9UIS9 1-605); assay: EMSA; EMSA Kit (Invitrogen), buffer, salt and pH not stated; 15 °C, 30 min; 6% native polyacrylamide gel; details: protein: recombinant; tags: His6 (pET22b)
T3 sequence: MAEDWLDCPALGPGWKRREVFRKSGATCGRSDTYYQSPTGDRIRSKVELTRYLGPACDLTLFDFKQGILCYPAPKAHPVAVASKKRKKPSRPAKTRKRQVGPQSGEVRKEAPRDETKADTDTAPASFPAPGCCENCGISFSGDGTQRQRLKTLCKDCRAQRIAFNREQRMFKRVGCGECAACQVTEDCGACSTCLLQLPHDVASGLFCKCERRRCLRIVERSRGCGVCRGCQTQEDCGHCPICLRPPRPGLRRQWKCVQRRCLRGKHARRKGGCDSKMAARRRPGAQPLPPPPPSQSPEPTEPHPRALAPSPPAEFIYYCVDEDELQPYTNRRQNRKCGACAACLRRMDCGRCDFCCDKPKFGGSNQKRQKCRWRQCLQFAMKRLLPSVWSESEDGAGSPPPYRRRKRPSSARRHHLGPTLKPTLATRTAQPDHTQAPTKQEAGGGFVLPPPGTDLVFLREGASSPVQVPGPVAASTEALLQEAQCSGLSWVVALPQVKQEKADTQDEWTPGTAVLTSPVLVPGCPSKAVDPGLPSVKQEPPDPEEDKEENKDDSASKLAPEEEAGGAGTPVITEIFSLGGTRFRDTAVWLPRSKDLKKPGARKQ

c-Fos = c-Fos (UniProt P01100 1-380); assay: as above; details: protein: recombinant; tags: His6 (pET22b); chain copies: 2
Sequence of c-Fos (P01100 whole entry): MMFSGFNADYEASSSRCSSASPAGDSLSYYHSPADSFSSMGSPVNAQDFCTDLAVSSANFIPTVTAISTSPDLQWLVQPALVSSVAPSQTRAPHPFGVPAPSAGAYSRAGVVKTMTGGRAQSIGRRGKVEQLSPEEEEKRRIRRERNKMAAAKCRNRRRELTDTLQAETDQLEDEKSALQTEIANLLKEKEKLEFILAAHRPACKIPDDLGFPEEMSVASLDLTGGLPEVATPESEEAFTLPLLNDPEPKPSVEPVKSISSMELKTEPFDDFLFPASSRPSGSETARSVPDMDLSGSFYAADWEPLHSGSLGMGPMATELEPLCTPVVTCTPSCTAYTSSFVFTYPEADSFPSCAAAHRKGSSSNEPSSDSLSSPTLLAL

T2 sequence (P31040 43-664): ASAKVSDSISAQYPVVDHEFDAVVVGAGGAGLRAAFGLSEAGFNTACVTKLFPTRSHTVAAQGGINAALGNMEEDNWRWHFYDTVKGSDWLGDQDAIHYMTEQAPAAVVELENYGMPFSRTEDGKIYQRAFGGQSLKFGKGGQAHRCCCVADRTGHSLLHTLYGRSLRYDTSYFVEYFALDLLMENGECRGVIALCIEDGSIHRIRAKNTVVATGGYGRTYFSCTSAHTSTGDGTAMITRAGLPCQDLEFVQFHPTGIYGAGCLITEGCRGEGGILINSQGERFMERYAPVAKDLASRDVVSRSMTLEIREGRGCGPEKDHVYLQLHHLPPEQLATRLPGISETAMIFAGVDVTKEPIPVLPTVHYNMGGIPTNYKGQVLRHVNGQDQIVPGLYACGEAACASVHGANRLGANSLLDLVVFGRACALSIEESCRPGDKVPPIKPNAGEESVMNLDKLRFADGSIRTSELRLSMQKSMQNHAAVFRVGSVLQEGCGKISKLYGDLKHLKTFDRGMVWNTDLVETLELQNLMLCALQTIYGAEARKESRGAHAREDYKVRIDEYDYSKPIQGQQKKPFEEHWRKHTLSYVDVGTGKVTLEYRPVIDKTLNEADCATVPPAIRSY

## CC(=O)Oc1ccccc1C(=O)O [aspirin]
SDHC
  DARTS (Pronase proteolysis, western blot): aspirin can specifically bind to SDHA and SDHC, but not SDHB and SDHD
SDHA
  DARTS (Pronase proteolysis, western blot): aspirin can specifically bind to SDHA and SDHC, but not SDHB and SDHD

B1: SDHB promoter -1135 CpG, methylated (dsDNA)
DNA 1: ACTCAAGCCAGTAAGCGTCAGAGATGAATA
DNA 2: TATTCATCTCTGACGCTTACTGGCTTGAGT
modifications: 5mC at C16 of strand 1; methylation of the complement not stated
MBD1
  binding result: binds

B2: SDHB promoter c-Fos binding region (dsDNA)
DNA 1: ACAGAAAGGGCTGACTCAAGCCAGTAAGCG
DNA 2: CGCTTACTGGCTTGAGTCAGCCCTTTCTGT
c-Fos
  binding result: binds

B3: SDHB promoter -1172/-1165 CpG, methylated (dsDNA)
DNA 1: GGCAAGCTGCACGGTATGCGACAGAAAGGG
DNA 2: CCCTTTCTGTCGCATACCGTGCAGCTTGCC
modifications: 5mC at C12 and C19 of strand 1; methylation of the complement not stated
MBD1
  binding result: binds
